Consider 1 molecule from patent US20090298169A1, “Pancreatic and Liver Endoderm Cells and Tissue by Differentiation of Definitive Endoderm Cells Obtained from Human Embryonic Stems” (The University of Georgia Research Foundation, priority 2006, published 2009).

This assay relates to BG02 hESCs. Kind of assay: QRT-PCR of mesendoderm, definitive endoderm and other lineage transcripts in hESCs differentiated in defined media. Format: cell-based, human. The settings on record: FIG. 7; Wnt3a 25 ng/ml; over 72 hours of treatment. Here is the method:
For DE differentiation, media was replaced after ˜18-24 hours with differentiation media (a), in the presence or absence of Wnt3a (25 ng/ml). RNA was prepared from cultures at times indicated and subject to QRT-PCR analysis of T, MixL1, GSC, Sox17 and CXCR4 transcripts. QRT-PCR reactions are normalized to GAPDH control. ‘Assays on demand’ QRT-PCR reactions were from Applied Biosystems and have been described previously (McLean et al., 2007).
BG02 hESCs were plated in defined conditions (a) and after 18 hours media was switched to differentiation media (a) with Wnt3a (25 ng/ml) for the first 24 hours. The time course proceeded for 96 hours. Untreated hESCs (96 hours) or cells in differentiation media (a) were collected at 24, 48, 72 and 96 hours for QRT-PCR analysis. ‘Assays on demand’ QRT-PCR reactions were from Applied Biosystems and have been described previously (McLean et al., 2007).
Culture of hESCs: Methods: hESCs are preferably grown in MEF-CM (details from previous filings) or defined media using Matrigel (1:200 dilution) as a growth matrix (for example). Cells are passaged manually or by using enzymatic methods such as collagenase or accutase and typically plated at 1×10^6 per 60 mm dish for 12-24 hours in hESC media then media is changes to promote DE differentiation (see ‘Differentiation media’ below). During differentiation, ‘differentiation media’ is replaced every day. […]

B1: Wnt3a: growth factor Wnt3a (25 ng/ml, R&D Systems) (protein, UniProt P56704 19-352, looked up)
Protein Wnt-3a: SYPIWWSLAVGPQYSSLGSQPILCASIPGLVPKQLRFCRNYVEIMPSVAEGIKIGIQECQHQFRGRRWNCTTVHDSLAIFGPVLDKATRESAFVHAIASAGVAFAVTRSCAEGTAAICGCSSRHQGSPGKGWKWGGCSEDIEFGGMVSREFADARENRPDARSAMNRHNNEAGRQAIASHMHLKCKCHGLSGSCEVKTCWWSQPDFRAIGDFLKDKYDSASEMVVEKHRESRGWVETLRPRYTYFKVPTERDLVYYEASPNFCEPNPETGSFGTRDRTCNVSSHGIDGCDLLCCGRGHNARAERRREKCRCVFHWCCYVSCQECTRVYDVHTCK
With B1, the “amount of CXCR4 mRNA produced, presence versus absence of Wnt3a” value was “improves the amount of CXCR4 mRNA produced”.
